Tests used:
PEP_2875804 = molecular target: T1, PEP_2875804; assay: peptide array of 15-mers of human tau probed with the antibody; label LIN
T1 peptide: AGTYGLGDRKDQGGY

PEP_2875820 = molecular target: T2, PEP_2875820; assay: as above
T2 peptide: RKDQGGYTMHQDQEG

PEP_2875810 = molecular target: T3, PEP_2875810; assay: as above
T3 peptide: YGLGDRKDQGGYTMH

PEP_2875814 = molecular target: T4, PEP_2875814; assay: as above
T4 peptide: LGDRKDQGGYTMHQD

PEP_2875824 = molecular target: T5, PEP_2875824; assay: as above
T5 peptide: DQGGYTMHQDQEGDT

PEP_2875816 = molecular target: T6, PEP_2875816; assay: as above
T6 peptide: GDRKDQGGYTMHQDQ

PEP_2875808 = molecular target: T7, PEP_2875808; assay: as above
T7 peptide: TYGLGDRKDQGGYTM

PEP_2875806 = molecular target: T8, PEP_2875806; assay: as above
T8 peptide: GTYGLGDRKDQGGYT

PEP_2875822 = molecular target: T9, PEP_2875822; assay: as above
T9 peptide: KDQGGYTMHQDQEGD

PEP_2875826 = molecular target: T10, PEP_2875826; assay: as above
T10 peptide: QGGYTMHQDQEGDTD

PEP_2875818 = molecular target: T11, PEP_2875818; assay: as above
T11 peptide: DRKDQGGYTMHQDQE

PEP_2875812 = molecular target: T12, PEP_2875812; assay: as above
T12 peptide: GLGDRKDQGGYTMHQ

PEP_2875825 = molecular target: T13, PEP_2875825; assay: peptide array of 15-mers of human tau probed with the antibody; label LIN.AA (double alanine)
T13 peptide: DQGGYTMHQAAEGDT

PEP_2875821 = molecular target: T14, PEP_2875821; assay: as above
T14 peptide: RKDQGGYTMAADQEG

PEP_2875817 = molecular target: T15, PEP_2875817; assay: as above
T15 peptide: GDRKDQGGYAAHQDQ

PEP_2875819 = molecular target: T16, PEP_2875819; assay: as above
T16 peptide: DRKDQGGYTAAQDQE

PEP_2875823 = molecular target: T17, PEP_2875823; assay: as above
T17 peptide: KDQGGYTMHAAQEGD

PEP_2875809 = molecular target: T18, PEP_2875809; assay: as above
T18 peptide: TYGLGDRKDAAGYTM

PEP_2875811 = molecular target: T19, PEP_2875811; assay: as above
T19 peptide: YGLGDRKDQAAYTMH

PEP_2875827 = molecular target: T20, PEP_2875827; assay: as above
T20 peptide: QGGYTMHQDAAGDTD

rhesus monkey tau = molecular target: T21, rhesus monkey tau (rhesus monkey, UniProt P57786 2-60); assay: direct ELISA on 96-well plates coated with tau at varied concentration; OD 650nm
T21 construct: also called rhesus tau
T21 sequence: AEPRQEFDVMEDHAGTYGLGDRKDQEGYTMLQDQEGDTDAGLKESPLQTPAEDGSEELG
Protocol: FIG. 10 illustrates the binding results for different anti human tau antibodies to either human or rhesus monkey tau. Murine anti human tau antibodies HJ8.5 and HJ8.7 alongside humanized variant VH1/VK2 (also referred to as C₂N-8E12) were tested. […] In order to determine whether these amino acid difference between the two species of tau, impacts the ability of antibodies HJ8.5/C₂N-8E12 to bind the following experiment was performed. Binding of C₂N-8E12, HJ8.5 (murine precursor of C₂N-8E12), and HJ8.7 (murine anti-human tau antibody that binds to an epitope of tau where the human and rhesus amino acid sequence is 100% conserved) to human and rhesus tau by coating 96 well ELISA plates with either human or rhesus tau at various concentrations was measured. […] As expected, HJ8.7 binds to both human and rhesus tau.

human tau [1] = molecular target: T22, human tau (human, UniProt P10636 2-60); assay: competition ELISA on plate-coated human tau against biotinylated HJ8.5; IC50 normalised to chimeric HJ8.5; column C2N Run 1
T22 construct: also called soluble human tau; human tau protein
T22 sequence (P10636 2-60 limits assumed): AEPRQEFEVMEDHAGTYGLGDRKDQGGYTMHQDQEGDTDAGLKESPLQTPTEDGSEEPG

human tau [2] = molecular target: T22, human tau; assay: competition ELISA on plate-coated human tau against biotinylated HJ8.5; IC50 normalised to chimeric HJ8.5; column External
[3] = molecular target: T23, first 32 amino acids of human tau, expressed on yeast (human, UniProt P10636 1-32); assay: yeast display, immunofluorescence
T23 construct: range 1-32; Yeast display scaffold not described
T23 chain (looked up): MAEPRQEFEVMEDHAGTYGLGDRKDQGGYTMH
Protocol: The epitope was mapped using yeast display. For this method, various peptides covering the sequence of human tau were expressed using by yeast. Binding of the HJ8.5 antibody to yeast in culture was measured by immunofluorescence. Binding to yeast, expressing variants of tau that included the first 34 amino acids was observed, but no binding, if the yeast only expressed the first 32 amino acids of tau.

human tau [4] = molecular target: T22, human tau; assay: competition ELISA on plate-coated human tau against biotinylated HJ8.5; IC50 normalised to chimeric HJ8.5; column C2N Run 2

B1: murine anti-tau antibody HJ8.5 (antibody, V domains shown)
VH: EVKVEESGGGLVQPGGSMKLSCVVSGFTFSNYWVNWVRQSPEKGLEWVAQIRLKSDNYATHYEESVKGRFTISRDDSKSSVYLQMNNLRAEDSGIYYCTNWEDYWGQGTTLTVSS
VL: DIVLTQSPASLAVSLGQRATISCRASQSVSTSRYSYIHWYQQKPGQPPKLLIKYASNLESGVPARFSGSGSGTDFTLNIHPLEEEDAATYYCHHSWEIPLTFGAGTKLELK
notes: Murine monoclonal antibody; also called parent antibody; murine parent
- Binding Signal (PEP_2875804): 427
- Binding Signal (PEP_2875820): 2700
- Binding Signal (PEP_2875810): 2840
- Binding Signal (PEP_2875814): 2840
- Binding Signal (PEP_2875824): 2680
- Binding Signal (PEP_2875816): 2650
- Binding Signal (PEP_2875808): 2640
- Binding Signal (PEP_2875806): 2640
- Binding Signal (PEP_2875822): 2700
- Binding Signal (PEP_2875826): 399
- Binding Signal (PEP_2875818): 2690
- Binding Signal (PEP_2875812): 2820
- Binding Signal (PEP_2875825): 2710
- Binding Signal (PEP_2875821): 2710
- Binding Signal (PEP_2875817): 2640
- Binding Signal (PEP_2875819): 2700
- Binding Signal (PEP_2875823): 2710
- Binding Signal (PEP_2875809): 2810
- Binding Signal (PEP_2875811): 1780
- Binding Signal (PEP_2875827): 427
- binding result (rhesus monkey tau): no binding
- IC50 (Relative to Chimera) (human tau [1]): 0.79 relative to Chimera
- IC50 (Relative to Chimera) (human tau [2]): 1.07 relative to Chimera
- binding result [3]: no binding
- IC50 (Relative to Chimera) (human tau [4]): 0.99 relative to Chimera
